Assay results reported in patent US20020037286A1 (published 2002).

T1: zyxin (endogenous, Jurkat T-cells) (human, UniProt Q15942 2-572)
T1 sequence (looked up): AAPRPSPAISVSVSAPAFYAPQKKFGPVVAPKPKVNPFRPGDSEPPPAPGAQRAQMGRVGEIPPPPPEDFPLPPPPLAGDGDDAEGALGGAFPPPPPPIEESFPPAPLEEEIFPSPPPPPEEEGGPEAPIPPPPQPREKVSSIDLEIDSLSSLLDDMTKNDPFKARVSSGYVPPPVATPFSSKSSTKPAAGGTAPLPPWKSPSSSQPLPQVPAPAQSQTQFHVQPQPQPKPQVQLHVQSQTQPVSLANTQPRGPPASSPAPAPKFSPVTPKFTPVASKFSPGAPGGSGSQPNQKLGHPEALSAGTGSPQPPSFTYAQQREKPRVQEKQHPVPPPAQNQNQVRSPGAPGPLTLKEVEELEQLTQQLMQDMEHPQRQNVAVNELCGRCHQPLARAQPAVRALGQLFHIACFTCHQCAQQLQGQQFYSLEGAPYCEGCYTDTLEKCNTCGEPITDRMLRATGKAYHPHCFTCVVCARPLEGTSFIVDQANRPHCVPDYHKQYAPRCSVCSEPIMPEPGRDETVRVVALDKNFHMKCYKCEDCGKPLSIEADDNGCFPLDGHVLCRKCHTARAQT


Tests used:
[1] = target: Ena/VASP proteins; test: cell-based or functional assay
[2] = target: Arp2/3 complex (endogenous, Jurkat T-cells); test: cell-based or functional assay
[3] = target: T1, zyxin (endogenous, Jurkat T-cells); test: co-immunoprecipitation from Jurkat T-cell lysate with WASP mAb 67B4, blot probed with zyxin mAb
Method: After quick pelleting, stimulated and control cells were resuspended and incubated in DMEM/HEPES containing 15 λg/ml goat anti mouse IgG antibodies at 37° C. for 2 min. Jurkat NP-40 lysates were prepared at 1×10⁸ cells/ml in ice cold NP-40 lysis buffer (1% (v/v) NP-40, 150 mm NaCl, 10 mM Tris-Cl pH 7.8) supplemented with 60 μg/ml chymostatin, 10 g/ml pepstatin, 5 μg/ml leupeptin, 2 μg/ml aprotinin, 2 mM Pefabloc (Roche Diagnostics), 1 mM Na₃VO₄, and 10 mM NaF. […] Immunoprecipitations were carried out according to standard protocols using 0.2 ml of Jurkat NP-40 lysates derived from 2×10^7 cells.
Immunoprecipitates were resolved by SDS-PAGE. As positive control, Jurkat E6-1 lysates were used.

Row | Molecule | length of the contact zone between Jurkat T-cells and anti CD3-coated beads [1] [µm] | length of the contact zone between the beads and Jurkat T-cells [2] [µm] | also measured
1 | GFP-ActA-Repeats | 3.84 |  | 
2 | GFP-ActA-Repeats F>A | 5.16 |  | 
3 | myc-tagged ScarW (from UniProt Q92558 443-543) |  | 5 | 
4 | myc-tagged ScarWA (from UniProt Q92558 443-559) |  | 3.16 | 
5 | WASP (endogenous, Jurkat T-cells) (other, human, UniProt P42768 2-502, looked up) SGGPMGGRPGGRGAPAVQQNIPSTLLQDHENQRLFEMLGRKCLTLATAVVQLYLALPPGAEHWTKEHCGAVCFVKDNPQKSYFIRLYGLQAGRLLWEQELYSQLVYSTPTPFFHTFAGDDCQAGLNFADEDEAQAFRALVQEKIQKRNQRQSGDRRQLPPPPTPANEERRGGLPPLPLHPGGDQGGPPVGPLSLGLATVDIQNPDITSSRYRGLPAPGPSPADKKRSGKKKISKADIGAPSGFKHVSHVGWDPQNGFDVNNLDPDLRSLFSRAGISEAQLTDAETSKLIYDFIEDQGGLEAVRQEMRRQEPLPPPPPPSRGGNQLPRPPIVGGNKGRSGPLPPVPLGIAPPPPTPRGPPPPGRGGPPPPPPPATGRSGPLPPPPPGAGGPPMPPPPPPPPPPPSSGNGPAPPPLPPALVPAGGLAPGGGRGALLDQIRQGIQLNKTPGAPESSALQPPPQSSEGLVGALMHVMQKRSRAIHSSDEGEDQAGDEDEDDEWDD |  |  | binding result [3]: no binding
